Results reported in patent US20260250718.

Assays:
Assay in all cases: cell_activity
[1] = test system: T1, phiC31 integrase (Streptomyces phage phiC31?); conditions: positive control; EGFP+ 293T cells at day 20
T1 sequence: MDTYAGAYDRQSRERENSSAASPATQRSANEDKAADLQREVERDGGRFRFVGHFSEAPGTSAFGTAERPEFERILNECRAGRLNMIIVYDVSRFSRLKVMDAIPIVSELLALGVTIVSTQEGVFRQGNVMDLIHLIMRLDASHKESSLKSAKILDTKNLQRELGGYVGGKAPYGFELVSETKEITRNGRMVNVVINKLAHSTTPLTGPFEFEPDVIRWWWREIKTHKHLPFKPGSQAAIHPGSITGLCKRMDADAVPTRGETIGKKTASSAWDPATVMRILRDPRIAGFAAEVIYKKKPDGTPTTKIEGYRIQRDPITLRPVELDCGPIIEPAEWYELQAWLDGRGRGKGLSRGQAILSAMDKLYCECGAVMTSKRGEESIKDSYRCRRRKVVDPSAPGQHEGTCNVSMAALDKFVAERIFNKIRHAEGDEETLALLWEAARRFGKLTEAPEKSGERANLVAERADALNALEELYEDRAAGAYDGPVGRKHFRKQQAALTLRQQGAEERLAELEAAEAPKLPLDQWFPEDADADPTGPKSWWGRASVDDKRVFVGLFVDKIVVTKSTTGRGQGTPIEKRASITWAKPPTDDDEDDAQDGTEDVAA

[2] = test system: T2, Cyin14 (metagenome (uncultured organism))
T2 sequence: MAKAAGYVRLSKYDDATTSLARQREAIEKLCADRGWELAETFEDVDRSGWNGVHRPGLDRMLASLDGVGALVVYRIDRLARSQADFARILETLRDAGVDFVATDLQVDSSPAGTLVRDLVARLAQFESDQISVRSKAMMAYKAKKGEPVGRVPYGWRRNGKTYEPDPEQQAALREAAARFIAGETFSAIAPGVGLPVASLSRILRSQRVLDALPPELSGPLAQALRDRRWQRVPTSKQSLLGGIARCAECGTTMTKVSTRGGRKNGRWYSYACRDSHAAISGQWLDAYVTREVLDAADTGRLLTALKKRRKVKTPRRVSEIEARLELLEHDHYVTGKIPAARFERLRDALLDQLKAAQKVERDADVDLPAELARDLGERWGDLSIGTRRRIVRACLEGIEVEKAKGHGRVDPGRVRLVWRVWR

[3] = test system: T3, Cyin16 (metagenome (uncultured organism)); conditions: EGFP+ 293T cells at day 20
T3 sequence: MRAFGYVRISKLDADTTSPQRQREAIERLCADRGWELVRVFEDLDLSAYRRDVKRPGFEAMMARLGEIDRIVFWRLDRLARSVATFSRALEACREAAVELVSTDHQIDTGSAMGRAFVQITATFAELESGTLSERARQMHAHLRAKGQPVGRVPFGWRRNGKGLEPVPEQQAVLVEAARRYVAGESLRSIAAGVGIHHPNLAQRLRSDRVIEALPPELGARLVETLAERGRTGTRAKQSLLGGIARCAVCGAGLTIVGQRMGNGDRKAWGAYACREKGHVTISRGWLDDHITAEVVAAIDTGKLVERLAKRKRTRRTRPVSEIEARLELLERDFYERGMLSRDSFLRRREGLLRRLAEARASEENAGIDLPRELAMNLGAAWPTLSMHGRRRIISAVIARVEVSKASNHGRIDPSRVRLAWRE

[4] = test system: T4, Cyin15 (metagenome (uncultured organism)); conditions: EGFP+ 293T cells at day 20
T4 sequence: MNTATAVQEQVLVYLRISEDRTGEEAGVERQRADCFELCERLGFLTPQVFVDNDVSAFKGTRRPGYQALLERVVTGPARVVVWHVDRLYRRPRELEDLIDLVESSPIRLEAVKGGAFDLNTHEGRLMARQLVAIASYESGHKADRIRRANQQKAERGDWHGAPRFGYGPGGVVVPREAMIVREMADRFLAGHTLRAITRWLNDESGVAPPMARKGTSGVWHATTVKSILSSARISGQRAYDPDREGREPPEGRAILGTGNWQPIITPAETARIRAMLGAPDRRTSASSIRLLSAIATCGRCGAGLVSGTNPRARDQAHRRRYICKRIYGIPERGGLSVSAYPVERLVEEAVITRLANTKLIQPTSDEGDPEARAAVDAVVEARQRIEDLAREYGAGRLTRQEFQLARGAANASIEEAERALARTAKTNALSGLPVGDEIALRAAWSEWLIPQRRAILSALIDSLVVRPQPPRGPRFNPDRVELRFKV

[5] = test system: T5, Cyin11 (metagenome (uncultured organism)); conditions: EGFP+ 293T cells at day 20
T5 sequence: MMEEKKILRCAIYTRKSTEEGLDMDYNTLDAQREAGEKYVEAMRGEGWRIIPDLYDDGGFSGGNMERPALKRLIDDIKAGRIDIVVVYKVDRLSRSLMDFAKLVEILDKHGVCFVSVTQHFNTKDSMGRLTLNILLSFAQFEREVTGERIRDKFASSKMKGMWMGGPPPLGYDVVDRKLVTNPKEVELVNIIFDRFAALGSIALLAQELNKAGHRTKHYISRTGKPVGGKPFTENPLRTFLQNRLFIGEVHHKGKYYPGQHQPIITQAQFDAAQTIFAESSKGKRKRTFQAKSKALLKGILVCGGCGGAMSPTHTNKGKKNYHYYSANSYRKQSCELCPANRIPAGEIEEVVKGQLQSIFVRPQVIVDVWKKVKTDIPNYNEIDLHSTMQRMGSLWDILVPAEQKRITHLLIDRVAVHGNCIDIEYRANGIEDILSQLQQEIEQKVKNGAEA

[6] = test system: T6, Cyin12 (metagenome (uncultured organism)); conditions: EGFP+ 293T cells at day 20
T6 sequence: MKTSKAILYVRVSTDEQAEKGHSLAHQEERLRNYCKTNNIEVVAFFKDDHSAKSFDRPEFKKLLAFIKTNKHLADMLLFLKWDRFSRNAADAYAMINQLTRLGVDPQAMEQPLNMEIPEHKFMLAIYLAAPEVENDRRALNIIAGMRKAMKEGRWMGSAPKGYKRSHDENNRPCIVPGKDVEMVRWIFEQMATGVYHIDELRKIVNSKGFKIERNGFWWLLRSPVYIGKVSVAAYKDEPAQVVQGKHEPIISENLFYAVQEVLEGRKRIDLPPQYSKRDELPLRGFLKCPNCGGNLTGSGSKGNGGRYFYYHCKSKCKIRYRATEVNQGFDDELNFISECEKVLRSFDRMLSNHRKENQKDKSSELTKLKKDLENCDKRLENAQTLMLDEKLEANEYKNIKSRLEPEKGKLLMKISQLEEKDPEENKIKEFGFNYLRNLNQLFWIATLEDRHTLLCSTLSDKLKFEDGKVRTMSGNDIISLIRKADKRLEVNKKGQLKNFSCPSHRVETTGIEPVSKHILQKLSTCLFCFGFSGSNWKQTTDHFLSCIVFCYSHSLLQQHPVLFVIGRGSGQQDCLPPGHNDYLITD

**Q.** “GTCGACGATGTAGGTCACGGTCTCGAAGCCGCGGTGCGGGTGCCAGGGCGTGCCCTTGGGCTCCCCGGGCGCGTACTCCACCTCACCCATCTGGTCCATCATGATGAACGGGTCGAGGTGGCGGTAGTTGATCCCGGCGAACGCGCGGCGCACCGGGAAGCCCTCGCCCTCGAAACCGCTGGGCGCGGTGGTCACGGTGAGCACGGGACGTGCGACGGCGTCGGCGGGTGCGGATACGCGGGGCAGCGTCAGCGGGTTCTCGACGGTCACGGCGGGCATGTCGAC (double strand) [phiC31 attB]” was tested. Which activity [1] did it give?
**A.** 8.87%

**Q.** With “ACGTATACTGGCGTACACTGATCAAGGAGGGGCCATGGCCAAGGCAGCCGGGTACGTCAGGCTCAGCAAGTACGACGACGCCACCACTAGTCTCGCCCGCCAGCGTGAGGCCATCGAAAAGCTGTGCCCGGCTCTGGGATCGCCTCACCGAGATCGAGCCGCACGCGTTCGAACCGGTGGAGACGAGGTGAAGCCGAACAGGGTCGCGCTCTATCTCCAAGACAAGCACCCCCTCCGCGAGGGGATGAAGTA (double strand) [14-B1]” as the sequence, how does the activity ([2]; EGFP+ 293T cells at day 20) read?
**A.** 1.38%

**Q.** Which activity ([3]; significantly above no-integrase control) does the source give for “TGCCGGCCAGTGCCGTCTCGGAGGTGGTGAACCAGGTTTCGGATGAAGTCGTCGGCCTCGGTCCCATCGAGCGATTGCTCAAGGACCCGGAGATCAGCGAGGTGATGGTGAACGGGGCCGACGACGTGGTCGTCGACCAGGAGGACCTTCACGAGGCCGCCTCTCGCAACGGGAACCGGGCCACGACCCGCGTGCCCTTCCCCGGCCGCGGATAGACGTAGAGCCTGCCCCCAGCCTCCCGCACGCGGCGGCG (double strand) [16-B2]” here?
**A.** 4.23%

**Q.** With “GGGTATTCGGCCTCTCTCCCCGTCACGTCCGCGACGTCTTCGTCGCCGGGGAGCTGGTGGTGGAAGACCGGCGGCCAACGCGGGTCCAGCCGGAGGACATCGTCTGGGACGCCGCCGCGGAGGCCGCGCCGACCGCGGCTGGGAGCTCGCCGAGACCTTCGAGGACGTGGACCGCTCCGGGTGGAACGGGGTTCACCGGCCCGGGCTCGACCGGATGCTGGCCTCACTCGACGGCGTTGGCGCGCTGGTCGT (double strand) [14-P1]” as the sequence, how does the activity ([2]; EGFP+ 293T cells at day 20, donor plasmid integration into genome, significantly above no-integrase control) read?
**A.** 10.1%

**Q.** “TCGATTCGGTTCGCCGCGCCGCTACCGGATCGCGCCGAAGAGATGACTGATCTCGAGGCTCCGGCCCGAAGGCCTCCTCAACGGCTTCGAGGATCGATTCGGCGCGCACGGGTGCCTCTCTCCGCGCGCCAGCGCGAGGCAATCGAGCGCCTCTGTGCTGACCGCGGGTGGGAGCTCGTTCGAGTCTTCGAGGATCTCGACCTCTCGGCCTACCGCCGCGACGTGAAGCGGCCGGGCTTCGAGGCCATGATGG (double strand) [16-P1]” was tested. Which activity [3] did it give?
**A.** 1.69%

**Q.** “GGAATCAGCCGGGGCTTCTCGGCCGTCAACATCCGCAAGTTCGTGGTGCGAGCATCGCGCCTGTCGGAGCTGGTCGATCTGCAGAGCCTCACGCCGTCCGCGGCCCTGTTCCTCGAGGCATCCATCCGGGACGACGGCCCCGGAGAGCGATCCCGCTGTGAGCAGGCCGCCCTCGGCAATGTCGAGCGCCGCATGCTGGCCGACCACCTGTTCGATCTCGCTTGCGAGCACCGGCTTCACCGCTGGGTCCGCGCT (double strand) [15-B2]” was tested. Which activity [4] did it give?
**A.** 1.12%

**Q.** For “ATCCAATGTGCAAGGCCATTTAGATGTCGCTTTGGCAAACACACTCGGCCGTTTGTGTCATGAATTATAATATCAGACATGCTACTGAAAAAGATTTATCTGCACTTTGCGATATTGAACATGAATCTTTATTTCCCAAACCAAAAAATGCGTTACCGTTCCAGCGCGTGCCGGTAATTGCAAATGCGACACCAGATAGGCTTTTATATTTCAGCCCCTGATATTCATAGCCGTCAGCCAGCACATACACAT (double strand) [11-B1]”, which activity [5] is on record?
**A.** 1.78%

**Q.** How did the activity [3] turn out when “AGCGCCACTTCGTGTGGGGCGTGTTGGAGGATCTCCAAAGCCTCTTCGGCTGAGCCCGCCTCCGTGACGTCGGCGCCCTCCACGCAGTTCTGCAGGACCTGGATGAGGCCCTTTCGAACCAGCGTGTGTACGTGGAGCGGAAGGGGCCGATTATTGACTGAACCGTAGACCAGCCCTATGCTGCTATGGCCGACCAGAGGAGGGGGAGCCATGCGCGCCTTCGGCTACGTCCGGATCTCCAAGCTCGACGCCG (double strand) [16-P2]” was run?
**A.** 2.33%

**Q.** “TTGTCTTCCTCTGCAGTCAATTGTTTTGGATCATCTTTTTTGGGAACAACAAGATTACTTTGAACATTATCTCTATTTACACCGGTTGAAACCTGGTCCTTCTTATTAAGAACTTCTGTATTTGTCAAAGCAATTCTTTATGTCAGAGTGAGTACAGACGAACAGGCTGAAAAAGGTCACAGTCTGGCTCATCAGGAAGAACGACTTCGTAATTATTGCAAAACAAATAATATCGAGGTCGTTGCTTTTTTTA (double strand) [12-P1]” was tested. Which activity [6] did it give?
**A.** 1.53%
